Data taken from publication PMC6555819, “Comprehensive study of nuclear receptor DNA binding provides a revised framework for understanding receptor specificity”.

How the values were obtained:
RARa:RXRa = RARa:RXRa (Homo sapiens, UniProt P10276;P19793 full;full); assay: no ligand; PBM; 270 nM : 90 nM RXRa; PBS pH 7.4, 2% milk, 0.02% Triton X-100, 1 mM DTT, BSA, 0.4 mg/ml salmon testes DNA; conditions: tags: His kept;His cleaved; copies: 1;1; label: surface-attached array probe
Method in brief: (§1)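 Random background probes are the reference for binding z-scores. These scores derive from regression-normalized fluorescence on custom Agilent 4×180K protein-binding microarrays incubated 1 h with ligand-free nuclear receptor dimers. Binding was detected with antibodies against each partner (one per run).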

LXRa:RXRa = LXRa:RXRa (Homo sapiens, UniProt Q13133;P19793 full;full); assay: as above; conditions: tags: His kept;His cleaved; copies: 1;1; label: surface-attached array probe
Method in brief: as §1

RARg:RXRa = RARg:RXRa (Homo sapiens, UniProt P13631;P19793 full;full); assay: as above; conditions: tags: His kept;His cleaved; copies: 1;1; label: surface-attached array probe
Method in brief: as §1

LXRb:RXRa = LXRb:RXRa (Homo sapiens, UniProt P55055;P19793 full;full); assay: as above; conditions: tags: His kept;His cleaved; copies: 1;1; label: surface-attached array probe
Method in brief: as §1

PPARa:RXRa = PPARa:RXRa (Homo sapiens, UniProt Q07869;P19793 full;full); assay: as above; conditions: tags: GST kept;His cleaved; copies: 1;1; label: surface-attached array probe
Method in brief: as §1

FXR:RXRa = FXR:RXRa (Homo sapiens, UniProt Q96RI1;P19793 full;full); assay: as above; conditions: tags: His kept;His cleaved; copies: 1;1; label: surface-attached array probe
Method in brief: as §1

VDR:RXRa = VDR:RXRa (Homo sapiens, UniProt P11473;P19793 full;full); assay: as above; conditions: tags: His kept;His cleaved; copies: 1;1; label: surface-attached array probe
Method in brief: as §1

RXRa = RXRa (Homo sapiens, UniProt P19793); assay: no ligand; PBM; 180 nM; PBS pH 7.4, 2% milk, 0.02% Triton X-100, 1 mM DTT, BSA, 0.4 mg/ml salmon testes DNA; conditions: tags: His cleaved; chain copies: 2; label: surface-attached array probe
RARb:RXRa = RARb:RXRa (Homo sapiens, UniProt P10826;P19793 full;full); assay: no ligand; PBM; 270 nM : 90 nM RXRa; PBS pH 7.4, 2% milk, 0.02% Triton X-100, 1 mM DTT, BSA, 0.4 mg/ml salmon testes DNA; conditions: tags: His kept;His cleaved; copies: 1;1; label: surface-attached array probe
Method in brief: as §1

RARg:RXRa, sequence (P13631 whole entry, chain 1 of 2): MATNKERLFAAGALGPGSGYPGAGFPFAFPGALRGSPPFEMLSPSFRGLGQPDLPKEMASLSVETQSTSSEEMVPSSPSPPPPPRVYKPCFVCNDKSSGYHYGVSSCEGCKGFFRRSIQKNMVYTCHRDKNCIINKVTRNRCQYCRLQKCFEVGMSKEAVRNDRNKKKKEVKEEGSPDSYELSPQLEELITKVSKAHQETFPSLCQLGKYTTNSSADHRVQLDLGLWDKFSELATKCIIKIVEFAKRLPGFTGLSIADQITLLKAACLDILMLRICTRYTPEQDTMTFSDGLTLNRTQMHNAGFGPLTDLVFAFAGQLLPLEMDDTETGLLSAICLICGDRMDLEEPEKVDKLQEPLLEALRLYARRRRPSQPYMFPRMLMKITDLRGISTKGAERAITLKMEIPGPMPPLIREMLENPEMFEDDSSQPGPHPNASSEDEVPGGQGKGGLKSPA
RARg:RXRa, sequence (P19793 whole entry, chain 2 of 2): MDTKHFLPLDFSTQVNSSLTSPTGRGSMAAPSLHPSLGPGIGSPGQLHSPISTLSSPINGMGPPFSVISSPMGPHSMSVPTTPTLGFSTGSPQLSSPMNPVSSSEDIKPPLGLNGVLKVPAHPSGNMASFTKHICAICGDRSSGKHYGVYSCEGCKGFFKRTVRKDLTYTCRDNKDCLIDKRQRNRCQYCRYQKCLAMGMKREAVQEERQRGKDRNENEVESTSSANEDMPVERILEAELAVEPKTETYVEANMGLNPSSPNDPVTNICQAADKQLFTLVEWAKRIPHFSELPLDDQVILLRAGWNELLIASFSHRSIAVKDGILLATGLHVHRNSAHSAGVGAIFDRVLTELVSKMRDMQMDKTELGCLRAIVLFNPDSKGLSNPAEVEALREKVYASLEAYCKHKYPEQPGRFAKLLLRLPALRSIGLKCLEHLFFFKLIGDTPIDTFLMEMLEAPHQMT
LXRb:RXRa, sequence (P55055 whole entry, chain 1 of 2): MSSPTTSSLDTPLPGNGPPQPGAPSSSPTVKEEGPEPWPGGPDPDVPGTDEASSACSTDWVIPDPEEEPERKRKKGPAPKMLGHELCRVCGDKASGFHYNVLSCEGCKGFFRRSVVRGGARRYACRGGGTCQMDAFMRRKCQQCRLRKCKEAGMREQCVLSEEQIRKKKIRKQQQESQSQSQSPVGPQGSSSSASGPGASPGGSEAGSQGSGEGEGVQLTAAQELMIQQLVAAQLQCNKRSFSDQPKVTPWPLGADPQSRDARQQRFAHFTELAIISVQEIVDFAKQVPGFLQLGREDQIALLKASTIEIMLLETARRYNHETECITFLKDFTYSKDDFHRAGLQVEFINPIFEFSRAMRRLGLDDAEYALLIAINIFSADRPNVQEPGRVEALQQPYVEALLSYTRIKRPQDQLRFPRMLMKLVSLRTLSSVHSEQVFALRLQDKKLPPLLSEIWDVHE
LXRb:RXRa, sequence (P19793 whole entry, chain 2 of 2): as the sequence (P19793 whole entry, chain 2 of 2) above
FXR:RXRa, sequence (Q96RI1 whole entry, chain 1 of 2): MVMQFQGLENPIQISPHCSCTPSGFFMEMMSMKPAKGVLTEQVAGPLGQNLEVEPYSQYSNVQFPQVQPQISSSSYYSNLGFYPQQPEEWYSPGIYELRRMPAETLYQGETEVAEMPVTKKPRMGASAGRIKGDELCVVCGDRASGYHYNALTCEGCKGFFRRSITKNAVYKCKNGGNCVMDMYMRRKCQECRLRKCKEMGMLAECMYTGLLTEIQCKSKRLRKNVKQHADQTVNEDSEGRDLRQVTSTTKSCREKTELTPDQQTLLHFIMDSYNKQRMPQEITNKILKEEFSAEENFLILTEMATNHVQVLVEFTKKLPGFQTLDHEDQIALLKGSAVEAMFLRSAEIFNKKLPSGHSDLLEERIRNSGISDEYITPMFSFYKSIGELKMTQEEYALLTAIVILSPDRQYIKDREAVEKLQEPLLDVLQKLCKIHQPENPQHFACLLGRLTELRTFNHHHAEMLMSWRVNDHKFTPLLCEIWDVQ
FXR:RXRa, sequence (P19793 whole entry, chain 2 of 2): as the sequence (P19793 whole entry, chain 2 of 2) above
VDR:RXRa, sequence (P11473 whole entry, chain 1 of 2): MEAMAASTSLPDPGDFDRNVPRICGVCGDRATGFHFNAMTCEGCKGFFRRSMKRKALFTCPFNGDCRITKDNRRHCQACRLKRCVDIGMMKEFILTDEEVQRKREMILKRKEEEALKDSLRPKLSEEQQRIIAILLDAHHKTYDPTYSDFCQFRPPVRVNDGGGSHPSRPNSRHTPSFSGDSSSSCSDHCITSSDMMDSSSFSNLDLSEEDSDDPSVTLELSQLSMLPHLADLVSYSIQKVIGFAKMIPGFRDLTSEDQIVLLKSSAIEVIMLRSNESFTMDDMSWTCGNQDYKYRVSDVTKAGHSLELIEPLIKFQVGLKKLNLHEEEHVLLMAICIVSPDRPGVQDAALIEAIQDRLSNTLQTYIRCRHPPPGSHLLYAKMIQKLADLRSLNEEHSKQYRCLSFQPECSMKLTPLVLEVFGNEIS
VDR:RXRa, sequence (P19793 whole entry, chain 2 of 2): as the sequence (P19793 whole entry, chain 2 of 2) above
RARa:RXRa, sequence (P10276 whole entry, chain 1 of 2): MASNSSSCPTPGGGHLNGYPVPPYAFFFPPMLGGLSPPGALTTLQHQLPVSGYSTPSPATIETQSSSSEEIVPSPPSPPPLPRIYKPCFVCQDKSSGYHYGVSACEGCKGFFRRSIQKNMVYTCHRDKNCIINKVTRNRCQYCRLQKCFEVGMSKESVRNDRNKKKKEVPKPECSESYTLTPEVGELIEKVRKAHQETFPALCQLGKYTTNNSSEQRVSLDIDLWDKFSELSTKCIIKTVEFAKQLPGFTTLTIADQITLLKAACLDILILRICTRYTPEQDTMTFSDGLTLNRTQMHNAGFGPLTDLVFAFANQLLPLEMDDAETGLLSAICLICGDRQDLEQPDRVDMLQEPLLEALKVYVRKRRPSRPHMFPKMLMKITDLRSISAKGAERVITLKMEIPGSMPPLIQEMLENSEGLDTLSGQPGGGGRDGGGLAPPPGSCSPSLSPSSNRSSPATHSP
RARa:RXRa, sequence (P19793 whole entry, chain 2 of 2): as the sequence (P19793 whole entry, chain 2 of 2) above
LXRa:RXRa, sequence (Q13133 whole entry, chain 1 of 2): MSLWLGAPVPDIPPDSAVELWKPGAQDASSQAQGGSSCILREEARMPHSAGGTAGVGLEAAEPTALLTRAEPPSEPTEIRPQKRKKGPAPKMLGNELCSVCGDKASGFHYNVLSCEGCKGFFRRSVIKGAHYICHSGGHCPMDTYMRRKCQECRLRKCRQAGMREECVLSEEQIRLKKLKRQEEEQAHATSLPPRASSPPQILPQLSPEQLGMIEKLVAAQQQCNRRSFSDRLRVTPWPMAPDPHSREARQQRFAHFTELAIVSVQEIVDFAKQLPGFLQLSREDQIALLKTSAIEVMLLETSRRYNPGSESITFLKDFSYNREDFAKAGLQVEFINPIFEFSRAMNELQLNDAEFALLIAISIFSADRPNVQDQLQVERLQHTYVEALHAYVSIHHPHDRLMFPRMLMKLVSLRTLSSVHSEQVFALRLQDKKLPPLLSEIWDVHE
LXRa:RXRa, sequence (P19793 whole entry, chain 2 of 2): as the sequence (P19793 whole entry, chain 2 of 2) above
RXRa, sequence (P19793 whole entry): as the sequence (P19793 whole entry, chain 2 of 2) above
RARb:RXRa, sequence (P10826 whole entry, chain 1 of 2): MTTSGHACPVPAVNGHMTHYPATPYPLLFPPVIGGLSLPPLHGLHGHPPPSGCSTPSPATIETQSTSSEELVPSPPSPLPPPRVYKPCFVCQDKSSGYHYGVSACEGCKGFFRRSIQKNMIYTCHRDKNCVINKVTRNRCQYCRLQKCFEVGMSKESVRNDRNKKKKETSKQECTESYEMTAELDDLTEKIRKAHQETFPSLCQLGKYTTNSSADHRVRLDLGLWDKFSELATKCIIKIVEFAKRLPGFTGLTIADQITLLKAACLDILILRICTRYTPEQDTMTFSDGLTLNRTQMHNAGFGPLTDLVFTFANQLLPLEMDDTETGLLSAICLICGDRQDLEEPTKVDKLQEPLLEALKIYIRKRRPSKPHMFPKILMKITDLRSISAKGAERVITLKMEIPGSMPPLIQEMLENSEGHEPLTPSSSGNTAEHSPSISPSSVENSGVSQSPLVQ
RARb:RXRa, sequence (P19793 whole entry, chain 2 of 2): as the sequence (P19793 whole entry, chain 2 of 2) above
PPARa:RXRa, sequence (Q07869 whole entry, chain 1 of 2): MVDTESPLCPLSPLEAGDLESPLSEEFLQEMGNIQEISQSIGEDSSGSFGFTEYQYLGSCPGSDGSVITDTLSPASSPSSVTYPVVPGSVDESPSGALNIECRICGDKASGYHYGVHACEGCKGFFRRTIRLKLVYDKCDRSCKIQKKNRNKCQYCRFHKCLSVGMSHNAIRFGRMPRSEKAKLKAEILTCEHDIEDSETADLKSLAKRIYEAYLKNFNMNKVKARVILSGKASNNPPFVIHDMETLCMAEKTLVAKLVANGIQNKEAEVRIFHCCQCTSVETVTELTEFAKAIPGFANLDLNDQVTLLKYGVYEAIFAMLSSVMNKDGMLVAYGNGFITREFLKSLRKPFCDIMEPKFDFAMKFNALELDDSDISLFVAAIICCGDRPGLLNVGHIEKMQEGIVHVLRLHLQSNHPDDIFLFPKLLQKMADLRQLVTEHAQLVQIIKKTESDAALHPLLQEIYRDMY
PPARa:RXRa, sequence (P19793 whole entry, chain 2 of 2): as the sequence (P19793 whole entry, chain 2 of 2) above

B1: NRC3_random_hg19_155_o1 (dsDNA)
DNA 1: GCGAGTGCTATGCTTGCTTTCTATCTCATACAGTATGCGATTGACAGCGTAGAATGAAGG
DNA 2: CCTTCATTCTACGCTGTCAATCGCATACTGTATGAGATAGAAAGCAAGCATAGCACTCGC
- binding signal (RARa:RXRa): -1.16 PBM z-score against 500 random probes
- binding signal (LXRa:RXRa): -0.77 PBM z-score against 500 random probes
- binding signal (RARg:RXRa): -0.56 PBM z-score against 500 random probes
- binding signal (LXRb:RXRa): -0.78 PBM z-score against 500 random probes
- binding signal (PPARa:RXRa): -0.78 PBM z-score against 500 random probes

B2: NRC3_random_hg19_112_o1 (dsDNA)
DNA 1: GCATCTGGCATATGTTCACTCCATGTACCACAGATAGCGATTGACAGCGTAGAATGAAGG
DNA 2: CCTTCATTCTACGCTGTCAATCGCTATCTGTGGTACATGGAGTGAACATATGCCAGATGC
- binding signal (RARa:RXRa): -0.07 PBM z-score against 500 random probes
- binding signal (LXRa:RXRa): -0.28 PBM z-score against 500 random probes

B3: NRC3_random_hg19_457_o1 (dsDNA)
DNA 1: GCAGCTGCATCCATGTTGCTGCAAAGGACATGACTTGCGATTGACAGCGTAGAATGAAGG
DNA 2: CCTTCATTCTACGCTGTCAATCGCAAGTCATGTCCTTTGCAGCAACATGGATGCAGCTGC
- binding signal (RARa:RXRa): -0.52 PBM z-score against 500 random probes
- binding signal (RARg:RXRa): -0.13 PBM z-score against 500 random probes
- binding signal (FXR:RXRa): -1.02 PBM z-score against 500 random probes
- binding signal (VDR:RXRa): -0.67 PBM z-score against 500 random probes
- binding signal (RXRa): -0.65 PBM z-score against 500 random probes

B4: NRC3_random_hg19_212_o1 (dsDNA)
DNA 1: GCAAGCATCCAGGACAAGGAAAGAGTAATCAATGGCGCGATTGACAGCGTAGAATGAAGG
DNA 2: CCTTCATTCTACGCTGTCAATCGCGCCATTGATTACTCTTTCCTTGTCCTGGATGCTTGC
- binding signal (RARa:RXRa): -0.03 PBM z-score against 500 random probes
- binding signal (LXRa:RXRa): -0.29 PBM z-score against 500 random probes
- binding signal (VDR:RXRa): 0.09 PBM z-score against 500 random probes

B5: NRC3_wobSeed125_DR5_C8G_o1 (dsDNA)
DNA 1: GCCCTTAGGGGTCACTGACAGGTTATAGCATTTGGAGCGATTGACAGCGTAGAATGAAGG
DNA 2: CCTTCATTCTACGCTGTCAATCGCTCCAAATGCTATAACCTGTCAGTGACCCCTAAGGGC
- binding signal (RARa:RXRa): 7.93 PBM z-score against 500 random probes
- binding signal (RARg:RXRa): 8.18 PBM z-score against 500 random probes
- binding signal (RARb:RXRa): 5.48 PBM z-score against 500 random probes
- binding signal (LXRb:RXRa): 6.07 PBM z-score against 500 random probes
- binding signal (PPARa:RXRa): 6.95 PBM z-score against 500 random probes
- binding signal (FXR:RXRa): 8.59 PBM z-score against 500 random probes
- binding signal (VDR:RXRa): 6.5 PBM z-score against 500 random probes
- binding signal (RXRa): 9.59 PBM z-score against 500 random probes

B6: NRC3_wobSeed85_DR3_C7A_o1 (dsDNA)
DNA 1: GCCGTCAAAGGTCAGAGAGGTCAGTGAATGCCGAGTGCGATTGACAGCGTAGAATGAAGG
DNA 2: CCTTCATTCTACGCTGTCAATCGCACTCGGCATTCACTGACCTCTCTGACCTTTGACGGC
- binding signal (RARa:RXRa): 7.18 PBM z-score against 500 random probes
- binding signal (RARg:RXRa): 7.93 PBM z-score against 500 random probes
- binding signal (RARb:RXRa): 5.97 PBM z-score against 500 random probes
- binding signal (LXRb:RXRa): 5.98 PBM z-score against 500 random probes
- binding signal (FXR:RXRa): 8.03 PBM z-score against 500 random probes
- binding signal (VDR:RXRa): 7.92 PBM z-score against 500 random probes
- binding signal (RXRa): 7.98 PBM z-score against 500 random probes

B7: NRC3_random_hg19_386_o1 (dsDNA)
DNA 1: GCTCCCTTCCCTTCCCTTCCCTTCCCACAACCACTGGCGATTGACAGCGTAGAATGAAGG
DNA 2: CCTTCATTCTACGCTGTCAATCGCCAGTGGTTGTGGGAAGGGAAGGGAAGGGAAGGGAGC
- binding signal (RARa:RXRa): 0.49 PBM z-score against 500 random probes
- binding signal (RARg:RXRa): -0.29 PBM z-score against 500 random probes
- binding signal (RXRa): -0.1 PBM z-score against 500 random probes

B8: NRC3_random_hg19_49_o1 (dsDNA)
DNA 1: GCACAGAAGGTAGCAAAGTAATCATGCTAGTGGTCAGCGATTGACAGCGTAGAATGAAGG
DNA 2: CCTTCATTCTACGCTGTCAATCGCTGACCACTAGCATGATTACTTTGCTACCTTCTGTGC
- binding signal (RARa:RXRa): -0.41 PBM z-score against 500 random probes
- binding signal (LXRa:RXRa): -0.5 PBM z-score against 500 random probes

B9: NRC3_random_hg19_127_o1 (dsDNA)
DNA 1: GCATGAGGTACTGATACATGCTACAATGTGTATGTAGCGATTGACAGCGTAGAATGAAGG
DNA 2: CCTTCATTCTACGCTGTCAATCGCTACATACACATTGTAGCATGTATCAGTACCTCATGC
- binding signal (RARa:RXRa): -0.55 PBM z-score against 500 random probes
- binding signal (VDR:RXRa): -0.33 PBM z-score against 500 random probes

B10: NRC3_wobSeed77_DR3_G19C_o1 (dsDNA)
DNA 1: GCACTTACGGGTCAACGACGTTATAGCACGCGTATAGCGATTGACAGCGTAGAATGAAGG
DNA 2: CCTTCATTCTACGCTGTCAATCGCTATACGCGTGCTATAACGTCGTTGACCCGTAAGTGC
- binding signal (RARa:RXRa): 4.03 PBM z-score against 500 random probes
- binding signal (LXRb:RXRa): 3.79 PBM z-score against 500 random probes
